Key:
BSA = target: T1, BSA (bovine, UniProt P02769 25-607); test: ELISA, coated antigen
T1 construct: negative control antigen; also called bovine serum albumine

[1] = target: T2, human MHC class II DR protein (DRA*0101/DRB1*0401), purified from PRIESS cells (human, UniProt P01903 26-254; P01911 30-266, limits assumed); test: SPR (BIAcore), Fab, chip density 500 RU MHCII
T2 construct: mature; also called HLA-DR protein; MHCII
T2 MHC II alpha: not shown
T2 MHC II beta: not shown

[2] = target: T3, HLA-DR (DRA*0101/DRB1*0401) on PRIESS cells (human, UniProt P01903 26-254; P01911 30-266); test: cell-based or functional assay
T3 MHC II alpha: not shown
T3 MHC II beta: not shown

[3] = target: T2, human MHC class II DR protein …; test: ELISA, coated antigen, Fab 100 ng/well, read at 370 nm
Method: After washing in PBS the anti-human IgG F(ab')_2-peroxidase-conjugate at a 1:10,000 dilution in TBS (supplemented with 5% w/v non-fat drymilk/0.05% v/v Tween 20) was added to each well for 1 h. Final washes were carried out in PBS followed the addition the substrate POD (Roche).

[4] = target: chimeric 0401-IE class II molecule on cells of transgenic mice (human/murine chimera); test: cell-based or functional assay
[5] = target: T2, human MHC class II DR protein …; test: SPR (BIAcore), Fab, 8 preparations on 4 chips
[6] = target: T2, human MHC class II DR protein …; test: SPR (BIAcore), MHCII on CM5 chip
[7] = target: T2, human MHC class II DR protein …; test: BiaCore, Fab
[8] = target: HLA-DR on MHH-CALL-4 cells (human); test: cell-based or functional assay
HLA-DR on MN-60 cells = HLA-DR on MN-60 cells (human); test: cell-based or functional assay
HLA-DR on BONNA-12 cells = HLA-DR on BONNA-12 cells (human); test: cell-based or functional assay
HLA-DR on BJAB cells = HLA-DR on BJAB cells (human); test: cell-based or functional assay
[9] = target: T3, HLA-DR (DRA*0101/DRB1*0401) on PRIESS …; test: cell-based or functional assay

T1 sequence (P02769 25-607 limits assumed): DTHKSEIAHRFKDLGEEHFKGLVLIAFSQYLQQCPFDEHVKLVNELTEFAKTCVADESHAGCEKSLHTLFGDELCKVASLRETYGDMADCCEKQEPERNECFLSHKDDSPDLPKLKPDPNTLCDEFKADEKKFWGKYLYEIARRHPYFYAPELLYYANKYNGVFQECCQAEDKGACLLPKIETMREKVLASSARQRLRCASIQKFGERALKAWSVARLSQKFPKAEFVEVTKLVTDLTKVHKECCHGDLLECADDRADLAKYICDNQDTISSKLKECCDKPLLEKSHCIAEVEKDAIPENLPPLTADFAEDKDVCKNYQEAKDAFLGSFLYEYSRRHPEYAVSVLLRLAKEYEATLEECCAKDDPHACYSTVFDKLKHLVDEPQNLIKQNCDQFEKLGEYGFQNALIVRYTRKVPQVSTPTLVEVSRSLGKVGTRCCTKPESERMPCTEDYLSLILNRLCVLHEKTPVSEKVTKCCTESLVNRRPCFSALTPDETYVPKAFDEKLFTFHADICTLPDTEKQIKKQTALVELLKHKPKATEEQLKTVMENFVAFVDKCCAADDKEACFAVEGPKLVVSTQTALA

B1: MS-GPC-1 Fab (Fab, V domains shown)
VH: QVQLKESGPALVKPTQTLTLTCTFSGFSLSTSGVGVGWIRQPPGKALEWLALIDWDDDKYYSTSLKTRLTISKDTSKNQVVLTMTNMDPVDTATYYCARQYGHRGGFDHWGQGTLVTVSS
VL: DIVLTQPPSVSGAPGQRVTISCSGSSSNIGSNYVSWYQQLPGTAPKLLIYDNNQRPSGVPDRFSGSKSGTSASLAITGLQSEDEADYYCQSYDFNESVFGGGTKLTVLG
notes: Fab from pMx9_Fab: VH-CH1 with FLAG tag and STREP tag II, VL-CL; VH residue 1 is Q in Fab; also called 17-Fab; 17
With B1 the binding result (BSA) was “no binding”, the Kd [1] was 820 nM and the koff [1] was 0.053 s⁻¹. For the same binder, the kon [1] was 63900 M⁻¹ s⁻¹ and the “EC50 of cell killing, cross-linked Fab, bivalent agent” value [2] was 54 nM.

B2: MS-GPC-8 Fab (Fab, V domains shown)
VH: QVQLKESGPALVKPTQTLTLTCTFSGFSLSTSGVGVGWIRQPPGKALEWLALIDWDDDKYYSTSLKTRLTISKDTSKNQVVLTMTNMDPVDTATYYCARSPRYRGAFDYWGQGTLVTVSS
VL: DIVLTQPPSVSGAPGQRVTISCSGSSSNIGSNYVSWYQQLPGTAPKLLIYDNNQRPSGVPDRFSGSKSGTSASLAITGLQSEDEADYYCQSYDMPQAVFGGGTKLTVLG
notes: Fab from pMx9_Fab: VH-CH1 with FLAG tag and STREP tag II, VL-CL; VH residue 1 is Q in Fab; also called B8-Fab; B8
With B2 the ELISA signal [3] was 1.06, the “IC50 of inhibition of IL-2 secretion from T-Hyb 1 cells” value [4] was 110 nM (half the concentration of the Fab) and the “Maximum inhibition(%) of IL-2 secretion” value [4] was 100%. It also gave a Kd [5] of 346 nM, a koff [5] of 0.029 s⁻¹ and a kon [5] of 99000 M⁻¹ s⁻¹. The Kd [6] was 346 nM, the koff [6] was 0.029 s⁻¹ and the kon [6] was 99000 M⁻¹ s⁻¹. The Kd [7] was 346 nM, the koff [7] was 0.029 s⁻¹ and the kon [7] was 99000 M⁻¹ s⁻¹. For the same binder, the “cell killing, cross-linked Fab, 4 h” value [8] was > 50%, the “maximum capacity to kill MHH-Call 4 cells” value [8] was 65% and the “cell killing, cross-linked Fab, 4 h” value (HLA-DR on MN-60 cells) was > 50%. For the same binder, the “cell killing, cross-linked Fab, 4 h” value (HLA-DR on BONNA-12 cells) was > 50%, the “cell killing, cross-linked Fab, 4 h” value (HLA-DR on BJAB cells) was > 50% and the “maximum killing capacity, cross-linked bivalent fragment” value [9] was 84%. The “EC50 of cell killing, cross-linked Fab, bivalent agent” value [2] was 31 nM.

Reference: patent publication US7521047 (GPC BIOTECH, dated 2009)
